Test results as given in a protein production outcome set (Wang et al. 2014).

Assay: label from the status in PepcDB records

Sequence | protein production
MATVAECNHSVLDLVTKMATMLVADEMKPKKQTAVLVAKKRSKIYESLLHSETMSSQDKLEMLHQVTSEVAKNPDRMDMLLRFQNLLEGQDKEESEITQDQDEENQSEVVIKRIKAGPLQLIETIEIVEEALHPKAFPDINQMNRALKPLQLQPYSDILTTSNLNINFPPEKLIPKIIPSTVIRMGLSESITRMRNEMEKPMHPPPRLPVLAKKVVAPLEDERPFVAQPGPEKHFVSDKLLTNELKILRNKNLVLNYLDEATLIDHLKKAACGIESLTFPISSADKLELRVRPNTTLPTMLPEVLADFANHFIRAGCAFLRLSSRTKWNNIAEMRLERPLNRAMRETIMDYLSTTRQFLLSLQADSLFQLLNNTSTAIQLLCQLDRMFENEPRLNLNTGITGSFLLSSIWLAIDTCGNKDFLHLLIYFLRCISRNYFIQLQRWIYHGELDESVNEIFISRCLNTSPSFTNQCSKEFFDKSYQVDNEAIPEFLVGCEEEILQCGKYNLVLRAYNAQHPVFDVQYPDIVVCLTEQQLKNMRRNLADKYAIIYKRFGWCSMQSIFEDRMATKRVFANLMVKRTQAHLDAWAQKQRELQIKANAQKKLQNDQLNAEQERIQQNHLEKRRQDIVNELAFQRECERMEDKLLEREKQELQKKVVQLAAVLSSSPDRSTVSDLSFASCIEEPDCLAESSSDKDDANTENSEDEATKQLDKTLNVPLEQPEAEYQADVDVDQPRGKECSLPNVFQYQRSHSDVINSNEHPTTQAEFNRNRQHGLSSDQFQQCHATVHLQESDLLKTAASTSSGLHAEIPQDINANLNCPDTKELTELQRNRKRNEHHDGFFSFNSTEDEHTHRLRSLLNSNTERGRNRLRVMETEFGLGYKNTDIETKATPCLPLEIDKLHVEIPLAVLTPMSTTSDVDFGDPSPRELPEIADTANNNNVSGSIESLSPELPKPVLAIAKPTSLLPKLDFGMKDERETEQDRDKVSTLPEACNPFMARRCLQLSVMAPLNAYYGLLRNEVLRIFQEQRIYEHFRKLRNYFFLVDGQFGATLTNEILGRIRAGVGPRSLSQKGILDTILTNALAACSADETTVSENLTLNCTTIPDTLNFLSVEATSMLKLNCKIDWPLNMVISSETISKYGQIFGYLLKLRHVSFVLDGTYEYLQQMGKLLGPELRTCTHFRHMQMMRHKMSHFMTSFQTHLVAKALLSTWKSFKEELCTADSIEALYKQHVAYLKRVAFLALLNRRSAKVKETIDNILVIILRFCKVIQSQSFIVDQDNYFVHPRFKRLQQEEAEFEKFLQYLIYLGNKAAASGYQEEIGDLICIINFNHYYKVSGNHTGSSMEDKKC | failed
MDCCTENACSKPDDDILDIPLDDPGANAAAAKIQASFRGHMARKKIKSGERGRKGPGPGGPGGAGVARGGAGGGPSGD | failed
MLGGIEAGGTKFVCAVGREDGTIIDRIEFPTKMPDETIEKVIQYFSQFSLQAIGIGSFGPVDNDKTSQTYGTITATPKAGWRHYPFLQTVKNEMKIPVGFSTDVNAAALGEFLFGEAKGLDSCLYITIGTGIGAGAIVEGRLLQGLSHPEMGHIYIRRHPDDVYQGKCPYHGDCFEGLASGPAIEARWGKKAADLSDIAQVWELEGYYIAQALAQYILILAPKKIILGGGVMQQKQVFSYIYQYVPKIMNSYLDFSELSDDISDYIVPPRLGSNAGIIGTLVLAHQALQAEAASGEVRS | not failed
MSHGGGGHAAELYPEEQIFAVGIALSLVGCYLANFLSPYGLGMLIGGLLASAACVAGANTVRKVAAYGLGTGVPSIGMVSLGMGTLAAVAGVLIPDYFNLPYLVAPIITLIVSAVIGYIVGRLTVNPVGMKIPIMVRSMTFLSIAGAMALLGFTVAYVGSLEPQKYIDYALNNGMMALAFIAAGMAILHPFNACLGPNESHKRTLTLAVACGFITWFVFSVVKLDIVSIIVSIILWAIVYVKFVKMSFKDACAVLHVPEIPKKEE | failed
MSLVVFLIAYVIRRRLDRADHLAGDEVWRNWFHRWGRVEAGQERSVWRGALLVVLPSLALAGAWALSSEAGYRYALYPLELVLMVVLMGAPGWRKVLRAYSDAWRRGDMQAAWHHVQERLPASERGAALSPEAMHLSVSRALMVSVFERFFLVVFWYAVGGIALAFLARGLVALAGQWPQAAARERYQRAARLIGWIPSRLLSCTFGLAGDLAGWSREIRKVFPGFGKKTADVLMISANGSLTGYALDPARFSELHPEEWPDFGGRSLSAIRDLLNRSMLVWICAFALLVIAGMA | failed
YATGNKKNISGSVEKITELGMNKDQITNPLEAIRGRVPGLTIQKGTNGPAALDAVRLRGTTSLTSGNDPLIIVDGVFGDLSMLTSIYPTDIESFTILKDASETAQYGSRGASGVIEITTKKGIRG | failed
MDSVVSDVSDLVEPDEELKAWQTDRTRAPIATKIVVAGGFGAGKTTLVTAVSEITPLQTEALMTQASEDTDDLTGTPDKLTTTVAMDFGRITLDDDLVLYLFGTPGQQRFWFMWDDLVRGAIGAVVLADTRRLSDCFPALDYFESCGLPYVVAVNHFDGSEKFEPEDVREALTVPAHIPVMIMDARRRISVIETLLALVGHALEVSPELEHHHHHH | not failed
SEPGEELEEEGSPGGREDGFTAEHLAAEAMAADMDPWLVFDARTTPATELDAWLAKYPPSQVTRYGDPGSPNSEPVGWIAVYGQGYSPNSGDVQGLQAAWEALQTSGRPITPGTLRQLAITHHVLSGKWLMHLAPGFKLDHAWAGIARAVVEGRLQVAKVSPRAKEGGRQVICVYTDDFTDRLGVLEADSAIRAAGIKCLLTYKPDVYTYLGIYRANRWHLCPTLYESRFQLGGSARGSRVLDRANNVELT | not failed
MFRQSKRRIASRKNFSSYDDIVKSELDVGNTNAANQIILSSSSSEEEKKLYARLYESKLSFYDLPPQGEITLEQFEIWAIDRLKILLEIESCLSRNKSIKEIETIIKPQFQKLLPFNTESLEDRKKDYYSHFILRLCFCRSKELREKFVRAETFLFKIRFNMLTSTDQTKFVQSLDLPLLQFISNEEKAELSHQLYQTVSASLQFQLNLNEEHQRKQYFQQEKFIKLPFENVIELVGNRLVFLKDGYAYLPQFQQLNLLSNEFASKLNQELIKTYQYLPRLNEDDRLLPILNHLSSGYTIADFNQQKANQFSENVDDEINAQSVWSEEISSNYPLCIKNLMEGLKKNHHLRYYGRQQLSLFLKGIGLSADEALKFWSEAFTRNGNMTMEKFNKEYRYSFRHNYGLEGNRINYKPWDCHTILSKPRPGRGDYHGCPFRDWSHERLSAELRSMKLTQAQIISVLDSCQKGEYTIACTKVFEMTHNSASADLEIGEQTHIAHPNLYFERSRQLQKKQQKLEKEKLFNNGNH | failed
MIATTSQQSFNLLRTLAVQKASDFADEFYIYMLKDQEASLFLSSQQVHDRLHGSMSKWIADILTNTGDSLADLINHQKKIGQIHARIGIPVDLVERGARRLKWHLYEHIAQVADDKALCFDAMRFASISMDIAIEIMSKTYSQSHDLEHHHHHH | failed
MFFNKKNNQDELKKLAATEAAKSITTEITLGVGTGSTVGFLIEELVNYRDKIKTVVSSSEDSTRKLKALGFDVVDLNYAGEIDLYIDGADECNNHKELIKGGGAALTREKICVAAAKKFICIIDESKKVNTLGNFPLPIEVIPMARSYIARQIVKLGGQPVYREQTITDNGNVILDVYNLKIDNPLKLETELNQITGVVTNGIFALKPADTVIMATKDSNIVVL | not failed
MLMLEREKLARLIKKRSLKVADEPVFKLSSGKLSRYYVDLKQITFDPEGDYLIGKAMYELVKEFNPDACGGLTLGADPIAYAIAFVSLMDSNPIKPFVVRKEPKGHGMKRQIEGLLNPGERVAVLEDVVTTGSSALKAVKACREYGLEVIGVFAVVDREEGGRENIEKEGIPLYSLFKLSELL | not failed
MAARRFTGDELAALLPHAGDAFFLRDAEVDGWRASGGASWRSDHPHLRGHFPGEPIVPGVYLLEAAAQLAGVAIRCGAEDWTPETLGVLAGVRKSYFHRFVRPGERVDYALDVKPAPGSAMYAVSGLGKVDGDKVLTVELTIAGVRRLEHHHHHH | failed
MDLETLRARREAVLSLCARHGAVRVRVFGSVARGEAREDSDLDLLVAFEEGRTLLDHARLKLALEGLLGVRVDIVSERGLAPRLREQVLREAIPL | not failed
MSLSLLITSITINTSHLQGMLGFYRIIGFQFTASKVDKGSEVHRAVHNGVEFSLYSIQNPQRSQIPSLQLGFQITDLEKTVQELVKIPGAMCILDPTDMPDGKKAIVLDPDGHSIELCELEGHHHHHH | not failed
MDGLHVSILSLVIFIVLFAVFVYLGFYASRWRKGDLSKLPEWALAGRKLGPYLMWFLLTADLFTAYTFIAVPSLVLASGPIGFYAAFYSGVTAFIALLFMPRLWAVSRNKGYVTAADFVKDRFNSKTLAGLVAVTGVVAELPYIALQIVGMQAALSILLLGLGVSNISLVNDLSLLVSFIILAAFVFTSGLRGAALTAVYKDIIILATVITVAIYVPLAFGGFSAAFSNAATYSSQVNSALNGVNKPIFYQYLQSTVSNNLAYISLAIGSAFALYLYPHAVNGSVSADSKKSLKISLALQPFYSLILAIIALFGILVYANTNVLNFIIHAKSGAVAVPALIGYTMPDWFVGVALLGIFIGGLVPAAIMAIGAANLLTRNIIKELKPNMSPNTESSLAKWISTAFKFIALALVFTVPATYAIQLQLLGGVIILQTLPPLFLGLYTHKLNSHSLIAGWVAGMFSGIYLTMLANHFGPIKTTSFITPIGVMYIGAISVIINVAIGLIGTAIAYGVGWRPRTGVKTEELV | failed
MSAKTNAEVVIDGKVYTLSGYENEEYLQKVAAYINNKIAEFDDMDEYKHLPGNMKSTLIELNIADDYFKAKALVEKLEGDIENKDKEIYDLKHDLISNQVKTENAEASMKELEAQNKELLLNKARLEATLEESLLDGKKPVKKSAHASKGANDSSDK | failed
MSKFAMVFPGQGSQSLGMLADLAAQFPIVEATFSEASSVLGYDLWQLVQQGPAEELNKTWQTQPALLTASVAIWRIWQHQGGKLPSLMAGHSLGEYSALVCAGVLDFKQAVSLVELRGKLMQEAVPEGTGAMYAIIGLDNESIAKACEESAQGQVVSPVNFNSPGQVVIAGNKDAVERAGAACKAAGAKRALPLPVSVPSHCALMKPAADKLAVALEKIDFQEPLFPVVNNVDVKAEVSPVAIRSALVRQLYNPVRWTESVEFIAAEGVELLLEIGPGKVLTGLTKRIVDSLAAAAVNDVVTLNSALEH | failed
MASVAAARAVPVGSGLRGLQRTLPLVVILGATGTGKSTLALQLGQRLGGEIVSADSMQVYEGLDIITNKVSAQEQRICRHHMISFVDPLVTNYTVVDFRNRATALIEDIFARDKIPIVVGGTNYYIESLLWKVLVNTKPQEMGTEKVIDRKVELEKEDGLVLHKRLSQVDPEMAAKLHPHDKRKVARSLQVFEETGISHSEFLHRQHTEEGGGPLGGPLKFSNPCILWLHADQAVLDERLDKRVDDMLAAGLLEELRDFHRRYNQKNVSENSQDYQHGIFQSIGFKEFHEYLITEGKCTLETSNQLLKKGIEALKQVTKRYARKQNRWVKNRFLSRPGPIVPPVYGLEVSDVSKWEESVLEPALEIVQSFIQGHKPTATPIKMPYNEAENKRSYHLCDLCDRIIIGDREWAAHIKSKSHLNQLKKRRRLDSDAVNTIESQSVSPDHNKEPKEKGSPGQNDQELKCSV | failed
MQAGNPMSLQSMLPYVTPPVVGAVIGYVTNDIAIRMLFRPLKPWRVFGIRVPLTPGVIPAGRHEFAATIGRMVGTHLVTGTDVARALGKDSFRRELQEAVSGKLDTLLDRDLGTVGSLLPEGFESWLRDGVDLAARRAGETVAGYLQGEDFRRELSLFLRDLEERVLPRELERILAGETGDAVRAGAGRALAALLQSRGVSRAVAGLVDDKLDELLASERPLRELLPPELVELATAQAREAMPVILGRVAEFVRSPEIRDTFEAKLREGVQQYLANLKGTLGFMAGFISVEKLNSYFPGLVGSVTDEVVRWLGEETTHRRVAAMVDQGLGRILDRPLAATVEQLPYRRVALLRRSIRRGALGVVRRPETAGFLLALAERELVRLAADPSRPILERLAPEDDPSRLREGLVGWLTDRLRDPGIRATLERIVAGRVEEWLFNRPLGRLSARISAEVRRDLDQLIYRQVADLLEREAPPLIDALDVARMVEEKINTLDILAVEGLLLSIMQKHFLYINLFGALLGFVMGSFNVLLMGLGR | failed
